Results on nine molecules are retold here after PMC9174178 (Cell Reports, 2022).

The chains are these.
B1: psNb 2-38 (VHH)
VHH: QVQLVESGGGLVQAGGSLRLSCAAAARFSTSAMGWFRQAPGKEREFVAAISWSNTNTHYADTVKGRFTISADTAKETVDLQMNSLKPEDTAVYYCVQGGWGIRQPIIVDYWGKGTQVTVSS
B2: psNb 2-45 (VHH)
VHH: QVQLVESGGGLVQAGGSLRLSCTASGYDFSILAIAWYRQAPGKERELVAAISRVGSTDYADSVKGRFTISRDNTKNTVSLQMDSLKPEDTAVYYCNAGIPMTTVLSGLGFWGQGTQVTVSS
B3: psNb 2-67 (VHH)
VHH: EVQLVESGGGLVQTGGSLRLSCALSGYTFSIFPTAWFRQAPGKEREFVAGIRWNGSTRDYTEYADFVKGRFTISRDNAKNMVYLQMISLKPEDTALYYCAASDGVIDGTNANAYRYWGQGTQVTVSS
B4: psNb 2-57 (VHH)
VHH: QVQLVESGGGLVQAGGSLRLSCAVSGRTISTFGMGWFRQAPGKEREFVATITRDEDMLLYADSVKGRFTISRDTAKNMVFLQMNSLKIEDTALYYCAVRRDSSWGYSRQSTEYDYWGQGTQVTVSS
B5: psNb 1-8 (VHH)
VHH: QVQLVESGGGLVQTGGSLRLSCAASGRTFSNYVMGWFRQAPGKEREFVSSIEWNSENTFYANSVKGRFTISRDNAKNTVYLQMNSLKAEDTAVYYCAADRGSSYYYTRASEYTYWGQGTQVTVSS
B6: psNb 2-65 (VHH)
VHH: HVQLVESGGGLVQAGGSLRLSCAASGTISTLNAMGWYRQAPGKQRELLASISNLGTTYHADSVAGRFTISRGSAKNTVNLQMNSLKPDDTAVYYCNTRVLEGGTQIRDYWGQGTQVTVSS
B7: psNb 1-23 (VHH)
VHH: QVQLVESGGGLVQAGGSLRLSCAASGRTDSISDMGWFRQAPGKEREFVAVVGWSGGGTDYAHSVKGRFTISRDNAKNTVYLQMNSLKPEDTAVYYCAVGSLRVGSFSVEYWGQGTQVTVSS
B8: psNb 1-22 (VHH)
VHH: HVQLVESGGGLVQPGGSLRLSCAASGRSFNSYLMGWFRQAPGKEREFVAWISGSPHDIIRYRDSVKDRFTISRDNAKNTVYLQMNSLKPVDTAVYYCAVGSLRVGSFSPDYWGQGTQVTVSS
B9: psNb 2-34 (VHH)
VHH: HVQLVESGGGLVQAGGSLRLSCAASGRTFSRYAAGWFRQAPGKEREFVAVIEWDGDSAYYADPVKGRFTISRDNAKNTVYLQMNRLKPEDTAVYICAVGGNHYSRSKYYNLDEYDDWGQGTQVTVSS

This assay has as its target SARS-CoV-2 spike HexaPro (S) (SARS-CoV-2 (Wuhan-Hu-1), UniProt P0DTC2, stabilised). Kind of assay: cryo-EM structure.
With B1, the binding result is “binds”.
The same measure for B2: “binds”; for B3: “binds”.
The same measure for B4: “binds”; for B5: “binds”.
Regarding B6, the binding result is on record as “binds”.
The same measure for B7: “binds”; for B8: “binds”; for B9: “binds”.
